{"source": "patent US20260234247A1", "about": "(published 2026)", "binders": {"B1": {"name": "LK-RB2-42 (antibody, human IgG4 S228P, kappa, V domains shown)", "VH": "EFQLQQSGPELVKPGASVKISCKASGYSFTDYNMNWVKQSNGKSLDWIGIINPKYGTTAYNQKLRDKATLTVDQSSSTAYMQLNSLTSEDSAVYYCASLNWDEGFAYWGQGTLVTVSP", "VL": "DVLMTQTPLSLPVSLGDQASISCRSSQSIVHSNGNTYLEWYLQKPGQPPKLLIYKVSNRFSGVPERFSGSGSGTDFTLKINRVEAEDLGVYYCFQGSLVPPTFGGGTKLEIKR"}, "B2": {"name": "LK-RB2-32 (antibody, human IgG4 S228P, kappa, V domains shown)", "VH": "DVQLQESGPGLVKPSQSLSLTCSVTGYSITSGYYWNWIRQFPGNKLEWMGYISFDGSNHYNPSLRNRISITRDTFKNQFFLKLNSVTTEDTATFYCTRRDYNWFAYWGQGTLVTVSA", "VL": "DIVLTQSPVTLSVTPGDSVSLSCRASQNINKNLHWYQQRSHESPRLLIKYVSQSISGIPSRFSGSGSGTDFTLSINSVETEDFGMYFCQQSNSWPLTFGAGTKLELRR"}, "B3": {"name": "LK-RB2-30 (antibody, human IgG4 S228P, kappa, V domains shown)", "VH": "EVQLVESGGGLVQPGGSLKLSCAASGFTFNTDGMSWVRQTPDKRLELVAIINSNGGSTYYPDSVKGRFTISRDNAKNTLYLQMSSLKSEDTAMYYCAREGSYGSWFAYWGQGTLVTVSA", "VL": "DIQMTQSPASLSVSVGETVTITCRASENINNNLAWYHQKQGKSPQLLVYAATNLADGVPSRFSGSGSGTQYSLKINSLQSEDFGSYYCQHFWGTPFTFGGGTKLEIKR"}, "B4": {"name": "LK-RB2-29 (antibody, human IgG4 S228P, kappa, V domains shown)", "VH": "QVQLQQSGAELARPGASVKLSCKASGYTFTSYWMQWVKQRPGQGLEWIGAIYPGDGDTRYTQKFKGKATLTADKSSSTAYMQLSSLASEDSAVYYCARGYYGSSYADYFDYWGQGTTLTVSS", "VL": "DIQMTQSPASLSASVGETVTITCRASGNIHNYLAWYQQKQGKSPQLLVYNAKTLADGVPSRFSGSGSGTQYSLKINSLQPEDFGSYYCQHFWSTPPTFGGGTKLEIKR"}, "B5": {"name": "LK-RB2-44 (antibody, human IgG4 S228P, kappa, V domains shown)", "VH": "EVQLVESGGDLVKPGGSLKLSCAASGFTFSSYGMSWVRQTPDKRLEWVATISGGGTYTYYPDSVKGRFTISRDNAKNTLYLQMSSLKSEDTAMYYCASGAMDYWGQGTSVTVSS", "VL": "not shown"}, "B6": {"name": "LK-RB2-27 (antibody, human IgG4 S228P, kappa, V domains shown)", "VH": "DVKLVESGGGLVKPGGSLKLSCAASGFTFSSYSMSWVRQTPEKRLEWVATISTGGSYTYYPDSVKGRFTISRDNAKNTLYLQMSSLKSEDTAMFYCTRGSMDYWGQGTSVTVSS", "VL": "DILMTQSPSSMSVSLGDTVSITCHASQDISSNIGWLQQKPGNSFKGLIYHGTNLEDGVPSRFSGSGSGADYSLTISSLESEDFADYYCVQYAQFPYTFGGGTKLEIKR"}, "B7": {"name": "LK-RB2-34 (antibody, human IgG4 S228P, kappa, V domains shown)", "VH": "B6 VH with L4V, G55S, P61S", "VL": "B6 VL with T52I"}, "B8": {"name": "LK-RB2-28 (antibody, human IgG4 S228P, kappa, V domains shown)", "VH": "B6 VH with V64M", "VL": "B6 VL with T22A"}, "B9": {"name": "LK-RB2-24 (antibody, human IgG4 S228P, kappa, V domains shown)", "VH": "QIQLVQSGPEVKKPGETVKISCKASGYTFTTYGMSWVKQAPGKGLKWMGWLNIYSGVPAYADDFKGRFAFSLESSASTAYLQINNLKNEDTATYFCARRENYDGYGMDYWGQGTSVTVSS", "VL": "DIVMTQSPATLSVTPGDRVSLSCRASQSISDYLHWYQQKSHESPRLLIKYASQSISGIPSRFSGSGSGSDFTLSINSVEPEDVGVYYCQNGHSFPYTFGGGTKLEIKR"}, "B10": {"name": "LK-RB2-41 (antibody, human IgG4 S228P, kappa, V domains shown)", "VH": "EVQLQLSGPELVKPGASVKMSCKASGYTFTDYNMHWVKQSHGKSLEWIGYINPNNGGTTYNQKFKGKATLTVNKSSSTAYMELRSLTSEDSAVYYCARAPYYGSSYLLAYWGQGTLVTVSA", "VL": "DIVMTQSHKFMSTSVGDRVSITCKASQDVSTAVAWYQQKPGQSPKLLIYSASYRYTGVPDRFTGSGSGTDFTFTISSVQAEDLAIYYCQQHYSIPWTFGGGTKLEIKR"}, "B11": {"name": "LK-RB2-25 (antibody, human IgG4 S228P, kappa, V domains shown)", "VH": "QVQLKESGPGLVAPSQSLSITCTVSGFSLTSYGVHWVRQPPGKGLEWLGVIWAGGSTKYNSALMSRLSINKDNSKSQVFLKMNSLQTDDTAMYYCARDQMVRSAMDYWGQGTSVTVSS", "VL": "DIQMIQSPSSMFASLGDRVSLSCRASQGIRGNLDWYQQKPGGTIKLLIYSTSNLNSAVPSRFSGSGSGSDYSLTISNLESEDFADYYCLQRNASPYTFGGGTKLEIKR"}, "B12": {"name": "LK-RB2-26 (antibody, human IgG4 S228P, kappa, V domains shown)", "VH": "B11 VH with K58D, S61A, L63F, M64I, S68N, N70S, N73I, K75E, L80F, K81R", "VL": "B11 VL"}, "B13": {"name": "LK-RB2-31 (antibody, human IgG4 S228P, kappa, V domains shown)", "VH": "QVQLQQPGAELVKPGASMKLSCKASGYTFTTYYMYWVKQRPGLGLEWIGGINPSNGGTTFNEKFKNKATLTVDKSSSTAYMQLRSLTSEDSAVYYCTRWRFFDVWGAGTTVTVSS", "VL": "SIVMTQTPEFLLVSAGDRVTITCKASQSVNNDVAWFQQKPGQSPKLLIYYASNRYTGVPDRFTGSGYGTDFTFTISTVQAEDLAIYFCQQDYSSPPTFGGATKLEIKR"}, "B14": {"name": "LK-RB2-15 (antibody, human IgG4 S228P, kappa, V domains shown)", "VH": "QIQLVQSGPELKKPGETVKISCKASGYTFTTYGMSWVKQAPGKGLKWMGWINVYSGVPTYADDFKGRFAFSLEISASTAYLQINNLKDEDTATYFCARRKDYSGHCFDYWGQGTTLTVSS", "VL": "DIVLTQSPASLAVSLGQRATFSCRASESVDTYGISFMHWYQQKPGQPPKLLIYRASNLESGIPARFSGSGSRTDFTLTINPVETDDVATYYCQQSKKEPYTFGGGTKLEIKR"}, "B15": {"name": "LK-RB2-47 (antibody, human IgG4 S228P, kappa, V domains shown)", "VH": "QVQLKQSGPGLVQPSQSLSITCTVSGFSLISYGVHWVRQSPGKGLEWLGVIWSGGSTDYNAAFISRLSISKDNSKSQVFFKMNSLQADDTAIYYCARSFHYHGSTFDYWGQGTTLTVSS", "VL": "DIQMTQTTSSLSASLGDRVIISCRASQDINNYLNWYQQKPDGTVKLLIYFTSRLHSGVPSSFSGSGSGTDYSLTINNLEQEDIATYFCQQVNTLPYTFGGGTKLEIKR"}}, "key": {"cynomolgus LILRB2": {"biological_target": "cynomolgus LILRB2 (cynomolgus)", "sequence (chain, as listed by the source)": "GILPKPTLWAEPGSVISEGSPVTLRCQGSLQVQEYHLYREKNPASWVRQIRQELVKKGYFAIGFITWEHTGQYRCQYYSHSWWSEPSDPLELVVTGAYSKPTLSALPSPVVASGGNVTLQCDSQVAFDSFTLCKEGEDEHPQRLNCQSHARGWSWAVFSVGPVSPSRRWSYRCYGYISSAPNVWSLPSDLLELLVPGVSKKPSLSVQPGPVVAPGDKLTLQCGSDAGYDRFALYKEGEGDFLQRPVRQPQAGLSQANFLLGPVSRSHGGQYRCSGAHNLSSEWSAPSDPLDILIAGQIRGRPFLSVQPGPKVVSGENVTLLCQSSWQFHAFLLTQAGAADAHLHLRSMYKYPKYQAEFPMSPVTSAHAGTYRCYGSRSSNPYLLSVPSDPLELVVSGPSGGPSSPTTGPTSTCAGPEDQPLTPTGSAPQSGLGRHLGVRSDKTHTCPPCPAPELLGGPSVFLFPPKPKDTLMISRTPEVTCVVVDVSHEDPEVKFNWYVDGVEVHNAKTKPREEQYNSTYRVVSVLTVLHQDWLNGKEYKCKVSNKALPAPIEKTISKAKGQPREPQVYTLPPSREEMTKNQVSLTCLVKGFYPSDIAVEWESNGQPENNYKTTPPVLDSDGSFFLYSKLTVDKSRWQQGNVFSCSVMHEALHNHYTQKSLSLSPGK", "assay": "Octet off-rate ranking;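 further: antibody dissociation rate constants against cynomolgus LILRB2 plus human LILRB1, LILRB2, LILRA1 and LILRA2, measured on an Octet instrument to rank binding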", "source_text": "(§1) Binding affinity of anti-LILRB1 and anti-LILRB2 antibodies against human LILRB1, LILRB2, LILRA1, LILRA2 and cynomolgus LILRB2 was ranked by measuring dissociation rate constant (Kdis) using the Octet system."}, "human LILRB1": {"biological_target": "T1, human LILRB1 (human, UniProt Q8NHL6 24-458, limits assumed)", "T1 construct": "also called hLILRB1", "T1 sequence (Q8NHL6 24-458 limits assumed)": "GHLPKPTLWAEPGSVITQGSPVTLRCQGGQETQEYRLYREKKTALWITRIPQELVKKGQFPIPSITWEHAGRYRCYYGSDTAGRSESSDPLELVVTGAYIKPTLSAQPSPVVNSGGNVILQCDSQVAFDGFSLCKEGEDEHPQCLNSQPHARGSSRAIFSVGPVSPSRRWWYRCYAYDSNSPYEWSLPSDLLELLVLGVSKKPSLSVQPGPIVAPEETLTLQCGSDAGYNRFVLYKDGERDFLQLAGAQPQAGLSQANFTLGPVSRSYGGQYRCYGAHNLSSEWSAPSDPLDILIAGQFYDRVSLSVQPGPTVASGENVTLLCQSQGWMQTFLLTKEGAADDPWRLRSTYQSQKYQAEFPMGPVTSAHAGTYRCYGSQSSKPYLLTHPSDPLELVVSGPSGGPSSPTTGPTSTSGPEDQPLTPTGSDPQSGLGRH", "assay": "Octet off-rate ranking", "source_text": "as §1"}, "human LILRB2": {"biological_target": "T2, human LILRB2 (human, UniProt Q8N423 22-460, limits assumed)", "T2 construct": "also called hLILRB2", "T2 sequence (Q8N423 22-460 limits assumed)": "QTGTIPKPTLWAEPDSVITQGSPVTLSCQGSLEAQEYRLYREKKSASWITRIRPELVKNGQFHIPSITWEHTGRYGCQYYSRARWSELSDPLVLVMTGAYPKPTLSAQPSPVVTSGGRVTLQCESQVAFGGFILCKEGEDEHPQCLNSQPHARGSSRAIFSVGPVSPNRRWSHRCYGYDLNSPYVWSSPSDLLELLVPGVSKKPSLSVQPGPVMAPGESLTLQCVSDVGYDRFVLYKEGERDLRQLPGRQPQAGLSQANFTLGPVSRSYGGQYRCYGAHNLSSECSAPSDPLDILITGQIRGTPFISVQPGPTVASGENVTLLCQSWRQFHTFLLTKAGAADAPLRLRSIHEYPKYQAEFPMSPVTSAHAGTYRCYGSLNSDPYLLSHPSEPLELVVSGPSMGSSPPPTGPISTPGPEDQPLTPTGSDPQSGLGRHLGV", "assay": "Octet off-rate ranking", "source_text": "as §1"}, "[1]": {"biological_target": "T3, human LILRB1 expressed on CHOK1 cells (CHOK1-hLILRB1) (human, UniProt Q8NHL6 24-650)", "T3 construct": "whole, on cells; also called CHOK1-LILRB1", "T3 sequence (Q8NHL6 24-650)": "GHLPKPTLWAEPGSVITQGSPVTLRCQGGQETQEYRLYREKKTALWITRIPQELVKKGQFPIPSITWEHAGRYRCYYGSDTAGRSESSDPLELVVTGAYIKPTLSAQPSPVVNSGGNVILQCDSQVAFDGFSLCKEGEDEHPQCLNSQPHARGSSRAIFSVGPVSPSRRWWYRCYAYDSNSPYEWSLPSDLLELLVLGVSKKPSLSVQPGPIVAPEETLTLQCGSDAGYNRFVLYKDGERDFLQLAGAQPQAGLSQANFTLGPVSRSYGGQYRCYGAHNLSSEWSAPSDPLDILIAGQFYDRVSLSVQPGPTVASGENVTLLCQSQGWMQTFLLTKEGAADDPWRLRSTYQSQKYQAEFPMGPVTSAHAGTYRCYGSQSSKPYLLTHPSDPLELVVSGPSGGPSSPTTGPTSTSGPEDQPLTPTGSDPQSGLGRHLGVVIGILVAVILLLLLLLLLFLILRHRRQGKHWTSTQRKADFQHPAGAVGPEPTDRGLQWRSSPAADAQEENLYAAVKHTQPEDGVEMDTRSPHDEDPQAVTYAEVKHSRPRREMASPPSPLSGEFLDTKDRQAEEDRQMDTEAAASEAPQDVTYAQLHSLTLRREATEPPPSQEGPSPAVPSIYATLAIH", "assay": "cell based RBA, flow cytometry: blocking of HLA-G binding to CHOK1-hLILRB1 cells"}, "[2]": {"biological_target": "T4, human LILRB2 expressed on CHOK1 cells (CHOK1-hLILRB2) (human, UniProt Q8N423 22-597)", "T4 construct": "whole, on cells; also called CHOK1-LILRB2", "T4 sequence (Q8N423 22-597)": "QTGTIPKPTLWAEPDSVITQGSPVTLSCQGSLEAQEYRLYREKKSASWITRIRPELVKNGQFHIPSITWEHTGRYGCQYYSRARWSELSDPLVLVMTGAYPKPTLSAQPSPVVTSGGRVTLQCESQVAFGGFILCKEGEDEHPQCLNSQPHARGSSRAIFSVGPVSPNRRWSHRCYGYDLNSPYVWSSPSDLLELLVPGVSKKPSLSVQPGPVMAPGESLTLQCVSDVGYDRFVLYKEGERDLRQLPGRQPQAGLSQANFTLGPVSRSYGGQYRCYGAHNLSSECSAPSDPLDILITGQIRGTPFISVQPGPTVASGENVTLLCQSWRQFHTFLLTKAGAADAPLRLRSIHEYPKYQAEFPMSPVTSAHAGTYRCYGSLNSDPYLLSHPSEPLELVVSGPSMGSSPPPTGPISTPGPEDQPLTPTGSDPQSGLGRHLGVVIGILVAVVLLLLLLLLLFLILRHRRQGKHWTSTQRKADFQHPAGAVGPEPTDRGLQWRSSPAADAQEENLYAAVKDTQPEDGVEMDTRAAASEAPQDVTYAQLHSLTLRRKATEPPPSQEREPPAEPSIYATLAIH", "assay": "FACS binding to CHOK1-hLILRB2 cells"}, "[3]": {"biological_target": "T4, human LILRB2 expressed on CHOK1 cells …", "assay": "cell based RBA, flow cytometry: blocking of HLA-G binding to CHOK1-hLILRB2 cells"}, "[4]": {"biological_target": "T3, human LILRB1 expressed on CHOK1 cells …", "assay": "FACS binding to CHOK1-hLILRB1 cells"}}, "note": "Positions count from the first letter of the chain named.", "data": [{"binder": "B1", "values": [{"measurement": "koff", "setting": "cynomolgus LILRB2", "result": 0.000147, "unit": "s⁻¹"}]}, {"binder": "B2", "values": [{"measurement": "koff", "setting": "human LILRB1", "result": 0.00186, "unit": "s⁻¹"}, {"measurement": "koff", "setting": "human LILRB2", "result": 0.00291, "unit": "s⁻¹"}, {"measurement": "koff", "setting": "cynomolgus LILRB2", "result": 0.00123, "unit": "s⁻¹"}]}, {"binder": "B3", "values": [{"measurement": "koff", "setting": "cynomolgus LILRB2", "result": "2.01e-05", "unit": "s⁻¹"}]}, {"binder": "B4", "values": [{"measurement": "koff", "setting": "cynomolgus LILRB2", "result": 0.000215, "unit": "s⁻¹"}]}, {"binder": "B5", "values": [{"measurement": "koff", "setting": "cynomolgus LILRB2", "result": 0.000346, "unit": "s⁻¹"}]}, {"binder": "B6", "values": [{"measurement": "koff", "setting": "cynomolgus LILRB2", "result": 0.00109, "unit": "s⁻¹"}]}, {"binder": "B7", "values": [{"measurement": "koff", "setting": "cynomolgus LILRB2", "result": 0.000673, "unit": "s⁻¹"}]}, {"binder": "B8", "values": [{"measurement": "koff", "setting": "cynomolgus LILRB2", "result": 0.00114, "unit": "s⁻¹"}]}, {"binder": "B9", "values": [{"measurement": "EC50", "setting": "[1]", "result": 1.7, "unit": "nM"}, {"measurement": "Top Inhibition", "setting": "[1]", "result": 93.4, "unit": "%"}, {"measurement": "EC50", "setting": "[2]", "result": 0.18, "unit": "nM"}, {"measurement": "EC50", "setting": "[3]", "result": 0.0956, "unit": "nM"}, {"measurement": "Top Inhibition", "setting": "[3]", "result": 74.1, "unit": "%"}, {"measurement": "EC50", "setting": "[4]", "result": 0.848, "unit": "nM"}]}, {"binder": "B10", "values": [{"measurement": "koff", "setting": "human LILRB2", "result": "6.33e-06", "unit": "s⁻¹"}, {"measurement": "koff", "setting": "cynomolgus LILRB2", "result": 0.00119, "unit": "s⁻¹"}]}, {"binder": "B11", "values": [{"measurement": "koff", "setting": "human LILRB1", "result": 0.000609, "unit": "s⁻¹"}, {"measurement": "koff", "setting": "cynomolgus LILRB2", "result": 0.000424, "unit": "s⁻¹"}]}, {"binder": "B12", "values": [{"measurement": "koff", "setting": "cynomolgus LILRB2", "result": 0.00184, "unit": "s⁻¹"}]}, {"binder": "B13", "values": [{"measurement": "koff", "setting": "human LILRB1", "result": 0.00167, "unit": "s⁻¹"}, {"measurement": "koff", "setting": "cynomolgus LILRB2", "result": 0.000291, "unit": "s⁻¹"}]}, {"binder": "B14", "values": [{"measurement": "EC50", "setting": "[1]", "result": 4.18, "unit": "nM"}, {"measurement": "Top Inhibition", "setting": "[1]", "result": 70.8, "unit": "%"}, {"measurement": "EC50", "setting": "[2]", "result": 0.16, "unit": "nM"}, {"measurement": "EC50", "setting": "[3]", "result": 0.162, "unit": "nM"}, {"measurement": "Top Inhibition", "setting": "[3]", "result": 77.5, "unit": "%"}, {"measurement": "EC50", "setting": "[4]", "result": 31.4, "unit": "nM"}]}, {"binder": "B15", "values": [{"measurement": "koff", "setting": "cynomolgus LILRB2", "result": "3.03e-05", "unit": "s⁻¹"}]}]}
